Measurements from the DeepSol protein solubility set.

Assay: soluble on expression in E. coli; label from the status in PepcDB or PDB records
For “MYCDHFGFSEHPFALTPNPAFLFLSSRHQEAFAHLLYGIDTRAGFIELSGEVGTGKTTVIRTFLNQLDPETHRTALVFNPTVSPLGLLQGIIREFGLPGTSTEKSELLETLNRFLLDENRAGHTVVLVIDEAQNLSPEVLEQIRLISNLETERDKLIQIVLVGQPELRHLLARQELRQLDQRITVRYHLEPMGLDDTKNYIRHRIRIAAGGREPVIFSAGAVKKIFGFSGGLPRLINAACDRALLLAYTTEAREVSPAMAAAAIADVATEARPPSPSRRFAVAAALILVAALGAGTFAVTRKGGESLPSASPPPTEPAASGEQPLKRTAALAGLAAVPEKDNLSAAVNTILRSWQAPPVASSPSPADLRSLARERGLTVTELSGTLNDLARLDTPALLHITLPQGGKRLVALTSLDKGHIGIDPPIAGHSTLTGGELSTLWSGRASVIWKNFHGIPSRLKPGGRSKAVGQLQELLKGAGYYAGRISGTYDTVTQEAIRSFQTAEGLDADGRTGEKTLLLLYRRAGGFFPPGLTQGKTAARTEAGDRSRGKVAQTRSNGEQSRLEHHHHHH”, the “soluble on expression in E. coli” value was “not soluble”. With “MYCKPHRPGNTPQVPDNKGKCTRLVDYLSKESQVERPYYDNFFSQQKDYVIPLTVKNHIDNNHRTLKSNDDKFYMLSINPSGDEQRHLIERVTGRKVGEFSELTPGEQESVLAQMKKFTRECMDEYARNFYREKIKSGDDLVWYGRVETERHYKNDDPEVKAGRVKAGDKKPGLQLHVHVIVSRMDRTQTVSLSPLSKSRGNRQILEGREVVVGFDRSQWSSRCASRFNQSYDYFPNYYSRDESLRKYSENWQAKNELKNEAVSKLKQEVLKGELKEERRLYANTFRIYRFVVNPRKAIIQELKRLGTDLLSGRDL” the “soluble on expression in E. coli” value was “not soluble”. In the case of “MYETYHSGWIETITGSMFSGKSEELIRRLRRGIYAKQKVVVFKPAIDDRYHKEKVVSHNGNEIEAINISTAQEILNHKLEEVNVIGIDEVQFFEDDIVNIVEKLAENGHRVIVAGLDMDFRGEPFKPMPKLLAVSEHITKLQAVCSVCGSPSSRTQRLINGEPAKVDDPIILVGANESYEPRCRAHHIVAPSENEKEEMLEHHHHHH”, the “soluble on expression in E. coli” value is reported as “not soluble”. In the case of “MYFVDRKKLEETLSYMEQMLDRYKAEERWDEPLRQLALERIAHIVIEAVLDVGNAMIDGFIMRDPGSYNDIIDILADEQVISPADADRLKAFIAHRKMLVHEYARVDHAKLLADLNEHLPALEAYPKAVRAYLENELGPVSAFRN”, the “soluble on expression in E. coli” value is reported as “soluble”. With “MYHHGFHYYSTNNSHSYSRTRNPPKSWNLGPHELGSSTDPENRAMQESIINSVSEQTLQSWIDFREEINKKNLLLRNKLKIPSEKIDDKYHTFPEKKQSDYADAEIYAGSDASQPSRNEYDRSKYVLNRKVRCAPTEIITDSSQSPGASPSSDQIFIDDSQPSTTKRRWVISEPDDNSDKHVSSSENHQQREKIISPTEKTLQKSTSSNSSPTLKLFVTVPSSSNQECILHKYGHCIAPQICPFAHDGVVRKLEKKTVTAPFWQRKLPNISLCPGYPTLKCWDHKCGKRHILYPSDNI” the “soluble on expression in E. coli” value was “not soluble”. With “MYIILVYDIGEKRVGKMLKLCRKYLNWIQNSVFEGEISEVKLLELKSRAAGIMEKEEDSLIIFSSRQERWLEKEIIGKERSATDIFL” the “soluble on expression in E. coli” value was “not soluble”. With “MYMNVLIISDSHGLEEELQTIAKRHEAEVDLMIHCGDSELETRHPALEPYAVVKGNCDFAGDFKDELLLTAGSRKILVTHGHLHGIKQTLLNVYYRAEELGADVICFGHSHIAGSEVLRGKLMINPGSIRLPRVRRTESYAILTLENDAATVRFYDQAGNEIEDLQNRVTLLEHHHHHH” the “soluble on expression in E. coli” value was “not soluble”. With “MYNLKNIYASITLYPHEINLVVSDNNNQFHVLYENSIANDELYTHAGITNKAKFKVVLNQLINNANDYLGFKLEKVIVVLAELVDDLEINRFKTDVFFTGYDFNHQDMLSSEKNRFLLKNRHINPNEVLDLVALNYRDLTTDKISKNFKYNCSYRANVIYYTTKNSLVKELKPFLKRNIIVKIDKIVTHHMVLAHSIKQINKNNLFVYLGEHTTDLMLFMDNALVDLVSEPFGRVNFLESDNDSENKALLEFLVDSTARIGDSGSIGMAYTDGSTYKEIRAVTIDDLIQSVNEKTKYLIDFINTNTEIFFQKYGFLPSTLLFYTKSKQLLNNFQLNQNLLSNHFKTVTIFKNEVQFVSRKYLLNCQTIALSWRQDQINVNPTSFALPFYSDKIEKQFKKSFLMLKVHTHINKLVQKLIK” the “soluble on expression in E. coli” value was “soluble”. In the case of “MYNVMITGAGKIGSLIACLLADSGSYQVHLADLEFNGSDVTRLLTALPEIKTVALDVKDEQSTQAYLQKHNIIAVISSLPYFLNTHVAKAAKAAKAHYFDLTEDTSVTEAVKAIAQNAETAFVPQCGLAPGFISIAANSLMQEFEKCHHARLRVGALPQRANNALHYSLTWSTDG”, the “soluble on expression in E. coli” value is reported as “not soluble”. With “MYPNLFQPLDLGFTQLKNRVLMGSMHTGLEENKEGLHKLAAFYEERAKGGVGLIVTGGFSPNLRGRLHPFSAEFSKTKHAKAHKVVTEAVHRHGAKIALQLLHAGRYAMHPFSQSASAIRAPIAKFAPSEMSTRQIRNTIQDFANSAELAQLAGYDGVEVMGSEGYLINQFICKRTNMRYDEWGGSYQNRIRFPVEIVKAIREAVGKEFIIIFRLSMLDLVEQGSTFEEVVVLAKALEEAGVTIINTGIGWHEARIPTIATQVPRAAFSWVTEKIKPYLKVPVVTCNRINTPEQAEKILASGQADMVSMARPFLADADFVRKAQEGQSALINTCIGCNQACLDNVFRGKRASCLVNPRACYETEIVVKPAQSKKIAVVGAGPAGLAFATTASERGHQVDLFERNDRIGGQFRLAMQIPGKEEFRETIRYFANRIDQTGVKLHLGCEVQFSDLRGYDEVVIATGVTPRKIALAGLSESSKVVDYQTLIREKTPVGQKVAIVGAGGIGVDVASMLTEPKDQTLDDWLYEWGIDKAIEHPGGLYPYPETTSEREVWLLQRRKGAVGKGPGKTTGWIHKRTLEKRGVHLVGGVQYQKIDEQGLHIERDGKSELIDADSVVICAGQESVRPFEAQWAELGDKLHVIGGADVAGELDAARAIRQGVELAVRL” the “soluble on expression in E. coli” value was “not soluble”. In the case of “MYQVVKMFGDWEPWWFIEGWEEDITEIAEYDTLSEALLYFQEEWDRGQEKWPYFQSKSSLLATFWSIKEKRWCEECDEYLQQYHSLMLLKEWQEIPKEESIERFEVFNKIAELPSACSLNLLEHHHHHH”, the “soluble on expression in E. coli” value is reported as “soluble”. For “MYRMDKYTIGLIRVITLEDKEILNLHGRIIESAFPELKVVSRCIEDQPKGIYNEETEREAEPKIIRLAKEFEREGVDAIIISCAADPAVEKVRKLLSIPVIGAGSSVSALALAYGRRVGVLNLTEETPKVIRSILGNNLIAEDHPSGVSNTLDLLTDWGRREVINAAKRLKEKGVEVIALGCTGMSTIGIAPVLEEEVGIPVIDPVIASGAVALHALKRREVKRFEGR”, the “soluble on expression in E. coli” value was “soluble”. In the case of “MYTPVSKSTKSNKNRSSLDKILDAKKPVNLLILGTDTGAEGRSVKNYHGLTDLMMFVTVNPSKKQTRVTTIARDSKVNLPDYPEVSPIKLNSAYSLGGVSETIKTLDKYYSVPIDGYVLVNWASTMKIITKMGGVDVISPLTFDNMGYSFKKGQMYHISGKKALAFVQLRHGDPRQDYGRQERERLVMMAAIKKSVSYKTILNSSFMQSLGDSMQTDLSLNDMIKLAMNYQGVTDNVKSDYAQGKSSSVNNLEHHHHHH”, the “soluble on expression in E. coli” value is reported as “soluble”. For “MYTYKIGISPEEHDQFVLAQPQAGLLQSSKWGKVKDNWKHERISFYENGVQVAAAACLIRKLPLGFTMIYIPRGPIMDYANFELLDFVIKTLKTFGKSKRALFIKIDPSLVIKQTLEGKESKENDVTLSIIAFLKKLGVEWSGRTKELEDTIQPRIQANIYAKDFDFDSLPKKAKQSIRTATNKGVNVTIGGSELLDDFSALMKKTENRKGIILRGKSYYQKLLGIYAGQSYITMASLDLPEQKKLLIQQLDKALAEQARLTDKSKPSKVAENQKTIARLQKDLTILSEQLATGQTRIPLAATLTLIYGETSENLYAGMDDDYRNYQAPLLTWYETAKEAFKRGCRWHNLGGVENQQDGGLYHFKARLNPTIEEFAGEFNIPVGLVSSLAILTYNLRKKLRSTTNGTN”, the “soluble on expression in E. coli” value was “not soluble”. In the case of “MYVECLSSTTPPIDVFDYLSFFVFNKKDNKYLSIQDVEVKRFSSSKTVWGLPKAMSLETFTDPAKGFIVEGEPCEFGAHVKIASSPVPVDENLPFHKFSWSIRDFSVLKQNDCISKTFAMGGKNWTLTVYPKGDSEADNEFCKYLHLADGEVLSPGEMISVRAQLRALDPRGSKHKTVWLQQWIMAATKARGIPQSLSLADLQEAYLDEDTLNVEIECEVVNSRKMF”, the “soluble on expression in E. coli” value is reported as “soluble”. In the case of “MYYIASADSQQSQQGRSQAEAPEFLTEKCPFVGLKSTLEQVGTPR”, the “soluble on expression in E. coli” value is reported as “not soluble”. With “NADAQTKLQIIDLKTRLRLALPNLPGGDLRGVNFSADASQLVFYINSDTSPSNLYVHKLGSTGVKRLTNTGNPNILEDNLVEGEVVRFKSFDGLDIPGILYKPKQAEFNKVPALVFIHGGPGGQSRKGYSALVQHLVNNGYAIFKVNNRGSSGYGKTFFHLDDKKHGDHDLKDVVYNKYYLQSLDWVDKDRIGVIGGSYGGYLTMAAMAFTDEFQAGVNIFGVTNWVRTLESIPPYWEAFRKSLYDELGDPNTDKERLHNISPVFFGHQIKKPVLVVQGKNDPRVLKIESDEMVDSIRSGGTYVDYLVFDDEGHGFSKKANRIEASNKYLNFFKTQL” the “soluble on expression in E. coli” value was “not soluble”. With “NDKYMLLVFGRNGCSYCERFKKDLKNVKELRDYIKEHFSAYYVNISYSKEHDFKVGDKNNEKEIKMSTEELAQIYAVQSTPTIVLSDKTGKTIYELPGYMPSTQFLAVLEFIGDGKYQDTKDDEDLTKKLKAYIKYKTNLSKSKSN” the “soluble on expression in E. coli” value was “not soluble”. For “NETEATLPVFTLEQVAEHHSPDDCWMAIHGKVYDLTPYVPNHPGPAGMMLVWCGQESTEAWETKSYGEPHSSLAARLLQRYLIGTLEEIT”, the “soluble on expression in E. coli” value was “soluble”. With “NGGTSKTVKFERFEDYNGPKPARAKNMVWQIIPDASTRTNALQSKSVQAIDSVPYLSIDQLKGTHTVESVQGFGLLFAMFNNDKSNPFSDLKNRQAFLYGIDMDKVIKTALLGQATAPTSFLHKEHPQYHEAKVVYSHDAEKAKALFKETGLTKLRMLCTDHDWVKKCTPLIQESLTALGIQVDFTEKKSSDVYNTIDGKPEAYDVVIAPGDPSVFGTDPDLLMRWWYSGDTWTDTRMHWKGTEAYAKLQEVLDAGLAATSESEQKNKWHEALDIISENVPLYPLLHRKAPTAWDASTLVDFKPISLTGLSFSGVGTTQ” the “soluble on expression in E. coli” value was “not soluble”. In the case of “NKYDWFEFFLNCGVDVSNCQRYTINFDREQLTEDMMPDINNSMLRTLGLREGDIVRVMKHLDKKFGRENIAS”, the “soluble on expression in E. coli” value is reported as “soluble”. For “NLMKRCTRGFRKLGKCTTLEEEKCKTLYPRGQCTCSDSKMNTHSCDCKSC”, the “soluble on expression in E. coli” value was “soluble”. In the case of “NQKDFDRTMVIDERTELVARTITDYLKRTNPMDKTIVFCNDIDHAERMRRALVNLNPEQVKKNDKYVMKITGDDEIGKAQLDNFINPKKPYPVIATTSELMTTGVDAKTCKLVVLDQNIQSMTKFKQIIGRGTRIDERYGKLWFTILDFKKATELFADERFDGIPEKVMDTTPEDIAD”, the “soluble on expression in E. coli” value is reported as “not soluble”. For “NTDELMRAVQPRVNPKLLYVIASTLRLYPLAKARLEIIRQTHITRGIDVHSIRGRWGLVLPLVVGLVDNAAQRARPLQRTGIGHSGPRTVLRPVPVMTHDVIIQVLAVCTTIAVCIWSIF”, the “soluble on expression in E. coli” value was “not soluble”. For “NVPELIGAQAHAVNVILDAETAYPNLIFSDDLKSVRLGNKWERLPDGPQRFDSCIIVLGSPSFLSGRRYWEVEVGDKTAWILGACKTSISRKGNMTLSPENGYWVVIMMKENEYQASSVPPTRLLIKEPPKRVGIFVDYRVGSISFYNVTARSHIYTFASCSFSGPLQPIFSPGTRDGGKNTAPLTICPVG”, the “soluble on expression in E. coli” value was “soluble”.
